Assay results published in the supplement of paper PMC11196671.

Columns and labels:
[1] = MHET released, HPLC; higher = more MHET released; extreme values may be limits of the assay; conditions: 24 h
Description: (§1)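 Purified PET hydrolases, 2.5 ug enzyme on 3.5 mg amorphous PET film (aFilm) or crystalline PET powder (cryPow) in 0.5 mL of 50 mM buffer (NaCitrate pH 4.5/5.5, NaPhosphate 6.5/7.5, glycine 8.5/9.5) at 60 or 70 C with shaking for 24 h. Total aromatic product by UV-Vis (260/280 nm, blank-subtracted, normalised per mg enzyme) and individual TPA, MHET, BHET concentrations by UHPLC-DAD at 240 nm; duplicate reactions.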

[2] = terephthalic acid (TPA) released, HPLC; higher = more TPA released; extreme values may be limits of the assay; conditions: 24 h
Description: as §1

[3] = PET hydrolysis product formed (TPA+MHET+BHET, UV-Vis) per mg enzyme (mmol/mg enzyme); higher = more PET depolymerisation activity; extreme values may be limits of the assay; conditions: 2 h
Description: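 Purified PET hydrolases (His-SUMO cleaved, E. coli C41(DE3) small-scale expression), 2.5 ug enzyme on 3.5 mg amorphous PET film (aFilm) or crystalline PET powder (cryPow) in 0.5 mL of 50 mM buffer (NaCitrate pH 4.5/5.5, NaPhosphate 6.5/7.5, glycine 8.5/9.5) at 60 or 70 C with shaking for 2 h. Soluble aromatic products (TPA+MHET+BHET) were quantified by UV-Vis at 260/280 nm, blank-subtracted against the no-enzyme control, and normalised per mg enzyme; duplicate reactions.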

[4] = as above; conditions: 24 h
Description: as §1

SNPYQRGPNPTRSALTADGPFSVATYTVSRLSVSGFGGGVIYYPTGTSLTFGGIAMSPGYTADASSLAWLGRRLASHGFVVLVINTNSRFDGPDSRASQLSAALNYLRTSSPSAVRARLDANRLAVAGHSMGGGGTLRIAEQNPSLKAAVPLTPWHTDKTFNTSVPVLIVGAEADTVAPVSQYAIPFYQNLPSTTPKVYVELCNASHIAPNSDNAAISVYTISWMKLWVDNDTRYRQFLCNVNDPALCDFRTNNRHCQ [LCC-A2]
Conditions | MHET released, [1] [mM] | PET hydrolysis product formed, [3] | PET hydrolysis product formed, [4] | terephthalic acid, [2] [mM]
PET substrate: aFilm, 60 °C, pH 4.5 | 0.107 | 0 | 0.0551 | 0.195
PET substrate: aFilm, 60 °C, pH 5.5 | 0.735 | 0.031 | 0.331 | 0.792
PET substrate: aFilm, 60 °C, pH 6.5 | 1.23 | 0.061 | 0.484 | 1.34
PET substrate: aFilm, 60 °C, pH 7.5 | 6.36 | 0.144 | 2.22 | 5.52
PET substrate: aFilm, 60 °C, pH 8.5 | 0.322 | 0.0742 | 0.195 | 0.776
PET substrate: aFilm, 60 °C, pH 9.5 | 2.64 | 0.154 | 0.963 | 2.661
PET substrate: aFilm, 70 °C, pH 4.5 | 0 | 0 | 0 | 0.0095
PET substrate: aFilm, 70 °C, pH 5.5 | 0.429 | 0.0749 | 0.181 | 0.455
PET substrate: aFilm, 70 °C, pH 6.5 | 0.862 | 0.138 | 0.361 | 0.83
PET substrate: aFilm, 70 °C, pH 7.5 | 8.82 | 0.418 | 2.87 | 5.42
PET substrate: aFilm, 70 °C, pH 8.5 | 0.253 | 0.09 | 0.171 | 0.643
PET substrate: aFilm, 70 °C, pH 9.5 | 2.25 | 0.423 | 0.934 | 2.9
PET substrate: cryPow, 60 °C, pH 4.5 | 0.1017 | 0.0208 | 0.0357 | 0.0633
PET substrate: cryPow, 60 °C, pH 5.5 | 0.24 | 0.0469 | 0.0766 | 0.132
PET substrate: cryPow, 60 °C, pH 6.5 | 0.476 | 0.062 | 0.152 | 0.232
PET substrate: cryPow, 60 °C, pH 7.5 | 0.733 | 0.127 | 0.261 | 0.39
PET substrate: cryPow, 60 °C, pH 8.5 | 0.261 | 0.0645 | 0.0909 | 0.174
PET substrate: cryPow, 60 °C, pH 9.5 | 0.281 | 0.0424 | 0.195 | 0.789
PET substrate: cryPow, 70 °C, pH 4.5 | 0.0080455 | 0 | 0 | 0.0184
PET substrate: cryPow, 70 °C, pH 5.5 | 0.168 | 0.0282 | 0.0541 | 0.0932
PET substrate: cryPow, 70 °C, pH 6.5 | 0.421 | 0.0641 | 0.139 | 0.209
PET substrate: cryPow, 70 °C, pH 7.5 | 0.748 | 0.107 | 0.334 | 0.639
PET substrate: cryPow, 70 °C, pH 8.5 | 0.293 | 0.0569 | 0.0995 | 0.157
PET substrate: cryPow, 70 °C, pH 9.5 | 0.189 | 0.0859 | 0.205 | 0.987
